The text below walks through data of publication PMC11018817, “Reciprocal antagonism of PIN1-APC/C^CDH1 governs mitotic protein stability and cell cycle entry” (Nature Communications, 2024).

Square brackets hold non-standard residues; d marks the D form. Ends that are not written are not given here. Pro(13C,15N) = 13C, 15N isotope-labelled Pro; pS = N[C@@H](COP(=O)(O)O)C(=O)O

The target of this assay is T1, 13C, 15N-enriched PIN1 (NMR sample) (human, UniProt Q13526 1-163, 13C, 15N-enriched).
T1 construct: PIN1, human; resonances of both the WW and the PPIase domain were followed; also called 15N-labeled PIN1
T1 sequence (Q13526 whole entry, the tested form may be a part): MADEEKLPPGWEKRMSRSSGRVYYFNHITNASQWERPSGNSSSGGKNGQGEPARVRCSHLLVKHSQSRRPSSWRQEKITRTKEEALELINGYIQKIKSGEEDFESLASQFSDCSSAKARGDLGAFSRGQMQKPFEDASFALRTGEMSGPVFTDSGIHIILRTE
Briefly: NMR titration; series of 2D HSQC spectra of 0.1 mM 13C, 15N-enriched PIN1 titrated with the CDH1 phosphopeptide; 25 °C, pH 6.6, 20 mM potassium phosphate, 100 mM NaSO4, 10% D2O; chemical shift perturbation. The following applies: both partners purified.

B1: CDH1-pS163 peptide (peptide)
peptide: LR[pS][Pro(13C,15N)]RKPTRKISKIPFKVLDAPE
notes: CDH1 (FZR1), human, residues 161-183; also called CDH1 phosphopeptide; phosphorylated peptide; source: synthetic peptide, bought: Pepmic
Take B1: the binding result is “binds”.
